# Measured values as given in patent US6077680A (The University of Florida, dated 2000).
# Read-outs that look alike come from different tables or passages of the source.
# Legend:
# [1] = target: rat brain membrane K channels (delayed rectifier, primarily Kv1.2) (rat) (UniProt P63142)
# [2] = target: cloned Kv1.3 channel, wild type
# [3] = target: rat brain membrane K channels (delayed rectifier, primarily Kv1.2) (rat) (UniProt P63142); assay: 125I-DTX displacement, rat brain membranes
# [4] = target: Kv1.3 potassium channel of human T lymphocytes (human) (UniProt P22001)
# [5] = target: rat brain membrane K channels (delayed rectifier, primarily Kv1.2) (rat) (UniProt P63142); remark: listed apart in the source
# [6] = target: rat brain membrane K channels (delayed rectifier, primarily Kv1.2) (rat) (UniProt P63142); remark: listed apart in the source
# [7] = target: rat brain membrane K channels (delayed rectifier, primarily Kv1.2) (rat) (UniProt P63142); assay: radioligand displacement, rat brain membranes
# [8] = target: rat brain membrane K channels (delayed rectifier, primarily Kv1.2) (rat) (UniProt P63142); remark: listed apart in the source
# Kv1.3 = Kv1.3 (Mus musculus, UniProt P16390); assay: cell-based; format: cell-based
# [9] = system: rat brain membrane K channels (primarily Kv1.2); format: binding; conditions: for IC50: read-out: IC50 Rat Brain 125I-CTX
# [10] = target: Kv1.3 potassium channels in Jurkat T lymphocytes (Homo sapiens, UniProt P22001); format: cell-based
# [11] = target: IKCa channel of activated human T-cells (human) (UniProt O15554); assay: whole-cell patch clamp block, activated human T-cells
# [12] = target: rat brain membrane K channels (delayed rectifier, primarily Kv1.2) (rat) (UniProt P63142); remark: listed apart in the source
# [13] = target: rat brain membrane K channels (delayed rectifier, primarily Kv1.2) (rat) (UniProt P63142); remark: listed apart in the source
# [14] = target: rat brain membrane K channels (delayed rectifier, primarily Kv1.2) (rat) (UniProt P63142); assay: 125I-dendrotoxin displacement assay
# [15] = target: Kv1.3 potassium channel of human T lymphocytes (human, UniProt P22001); assay: 125I-ChTX displacement, Jurkat T lymphocytes
# Sequence of rat brain membrane K channels (delayed rectifier, primarily Kv1.2) (rat) (P63142 whole entry): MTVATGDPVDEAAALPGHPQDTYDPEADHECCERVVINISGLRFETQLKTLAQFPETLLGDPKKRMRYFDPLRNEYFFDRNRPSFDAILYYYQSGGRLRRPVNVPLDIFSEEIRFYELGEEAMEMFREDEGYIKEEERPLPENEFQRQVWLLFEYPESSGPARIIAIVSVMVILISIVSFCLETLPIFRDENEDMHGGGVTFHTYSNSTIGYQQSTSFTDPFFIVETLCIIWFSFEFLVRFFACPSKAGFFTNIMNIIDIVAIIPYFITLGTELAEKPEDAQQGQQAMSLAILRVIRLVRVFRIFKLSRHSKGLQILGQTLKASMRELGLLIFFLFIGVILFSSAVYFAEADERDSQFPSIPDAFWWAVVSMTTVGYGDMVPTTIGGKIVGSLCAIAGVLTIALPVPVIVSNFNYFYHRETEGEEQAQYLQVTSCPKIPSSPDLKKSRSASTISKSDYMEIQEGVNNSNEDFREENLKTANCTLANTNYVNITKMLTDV
# Sequence of Kv1.3 potassium channels in Jurkat T lymphocytes (P22001 whole entry): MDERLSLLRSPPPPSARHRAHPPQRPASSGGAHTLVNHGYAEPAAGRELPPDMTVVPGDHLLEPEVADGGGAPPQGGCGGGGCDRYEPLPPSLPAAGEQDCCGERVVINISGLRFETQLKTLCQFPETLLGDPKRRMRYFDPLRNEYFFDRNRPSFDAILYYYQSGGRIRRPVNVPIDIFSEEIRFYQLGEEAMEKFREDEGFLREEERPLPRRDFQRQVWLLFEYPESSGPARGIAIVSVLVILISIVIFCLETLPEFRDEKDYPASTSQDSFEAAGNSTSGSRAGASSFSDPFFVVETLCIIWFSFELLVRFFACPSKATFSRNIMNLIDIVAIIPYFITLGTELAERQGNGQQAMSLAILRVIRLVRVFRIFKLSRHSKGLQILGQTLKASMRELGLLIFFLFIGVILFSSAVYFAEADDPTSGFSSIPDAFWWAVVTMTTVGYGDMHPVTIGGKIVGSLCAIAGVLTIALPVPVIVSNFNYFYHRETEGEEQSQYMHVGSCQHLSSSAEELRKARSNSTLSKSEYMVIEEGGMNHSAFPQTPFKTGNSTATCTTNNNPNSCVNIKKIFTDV
# Sequence of Kv1.3 (P16390 whole entry): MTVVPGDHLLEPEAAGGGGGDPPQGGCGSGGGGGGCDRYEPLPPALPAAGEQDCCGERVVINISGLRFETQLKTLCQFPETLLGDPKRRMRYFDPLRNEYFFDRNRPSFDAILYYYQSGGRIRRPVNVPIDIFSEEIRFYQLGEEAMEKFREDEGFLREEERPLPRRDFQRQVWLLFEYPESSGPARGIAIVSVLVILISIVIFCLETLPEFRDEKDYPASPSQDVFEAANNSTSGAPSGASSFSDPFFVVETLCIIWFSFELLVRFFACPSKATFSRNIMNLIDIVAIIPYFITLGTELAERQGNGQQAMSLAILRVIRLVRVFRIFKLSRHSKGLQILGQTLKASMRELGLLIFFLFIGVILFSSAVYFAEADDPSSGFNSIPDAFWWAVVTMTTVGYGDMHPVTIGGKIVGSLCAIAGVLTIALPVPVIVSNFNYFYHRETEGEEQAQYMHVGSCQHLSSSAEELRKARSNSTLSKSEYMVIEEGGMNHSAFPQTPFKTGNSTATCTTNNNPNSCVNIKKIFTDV
# Sequence of Kv1.3 potassium channel of human T lymphocytes (human) (P22001 whole entry): as the sequence (P22001 whole entry) above
molecule,measurement,setting,value
ShK Y23Nph (peptide),IC50 ratio (analog IC50/ShK IC50),[1],1
same,free energy difference of binding,[1],0 kcal/mol
same,Kd,[2],0.2 nM
same,IC50 ratio (analog IC50/ShK IC50),[3],1
ShK R1S (peptide),equipotent molar ratio (analog IC50/ShK IC50) for block of Kv1.3 current,[4],0.92
same,IC50,[5],16 nM
same,IC50 ratio (analog IC50/ShK IC50),[3],1.5
ShK K22Homocit (peptide),IC50 ratio (analog IC50/ShK IC50),[6],> 500
same,free energy difference of binding,[6],> 3.65 kcal/mol
same,Kd,[2],> 100 nM
same,IC50 ratio (analog IC50/ShK IC50),[3],> 500
ShK Y23Cha (peptide),IC50 ratio (analog IC50/ShK IC50),[1],8.8
same,free energy difference of binding,[1],1.27 kcal/mol
same,IC50 ratio (analog IC50/ShK IC50),[3],8.8
same,free energy difference of binding,[3],1.27 kcal/mol
ShK Y23Bpa (peptide),IC50 ratio (analog IC50/ShK IC50),[1],3.76
same,free energy difference of binding,[1],0.78 kcal/mol
ShK K22Nle (peptide),equipotent molar ratio (analog IC50/ShK IC50) for block of Kv1.3 current,[4],> 23
same,IC50 ratio (analog IC50/ShK IC50),[6],> 250
same,free energy difference of binding,[6],> 3.23 kcal/mol
same,IC50 ratio (analog IC50/ShK IC50),[3],> 250
ShK K22Orn (peptide),equipotent molar ratio (analog IC50/ShK IC50) for block of Kv1.3 current,[4],1.2
same,IC50 ratio (analog IC50/ShK IC50),[6],1.2
same,free energy difference of binding,[6],0.11 kcal/mol
same,IC50,[5],20 nM
same,Kd,[2],2 nM
same,IC50 ratio (analog IC50/ShK IC50),[3],1.7
same,reduction of apparent affinity,[7],120%
ShK K22 citrulline (peptide),IC50,[5],2000 nM
ShK Y23Apa (peptide),IC50 ratio (analog IC50/ShK IC50),[1],0.8
same,free energy difference of binding,[1],-0.13 kcal/mol
same,Kd,[2],0.12 nM
same,IC50 ratio (analog IC50/ShK IC50),[3],0.8
ShK M21Nle (peptide),equipotent molar ratio (analog IC50/ShK IC50) for block of Kv1.3 current,[4],0.8
same,IC50,[5],9 nM
same,IC50 ratio (analog IC50/ShK IC50),[3],0.8
ShK F27Cha (peptide),IC50 ratio (analog IC50/ShK IC50),[8],0.7
same,free energy difference of binding,[8],-0.21 kcal/mol
same,IC50 ratio (analog IC50/ShK IC50),[3],0.7
same,free energy difference of binding,[3],-0.21 kcal/mol
ShK K9Q (peptide),equipotent molar ratio (analog IC50/ShK IC50) for block of Kv1.3 current,[4],9.6
same,IC50,[5],11 nM
same,IC50 ratio (analog IC50/ShK IC50),[3],0.6
ShK desR1-S2 (peptide),IC50 ratio (analog IC50/ShK IC50),[8],2.54
same,free energy difference of binding,[8],0.54 kcal/mol
same,IC50 ratio (analog IC50/ShK IC50),[3],2.5
same,free energy difference of binding,[3],0.54 kcal/mol
CC[C@H](C)[C@@H]1NC(=O)[C@@H](NC(=O)[C@H](CO)NC(=O)[C@@H](N)CCCNC(=N)N)CSSC[C@@H](C(=O)O)NC(=O)[C@H]([C@@H](C)O)NC(=O)CNC(=O)[C@@H]2CSSC[C@@H]3NC(=O)[C@H](CCC(N)=O)NC(=O)[C@H](Cc4ccccc4)NC(=O)[C@H](C)NC(=O)[C@H]([C@@H](C)O)NC(=O)[C@H](CSSC[C@H](NC(=O)[C@H](Cc4ccccc4)NC(=O)[C@H](CO)NC(=O)[C@H](CC(C)C)NC(=O)[C@H](CCCNC(=N)N)NC(=O)[C@H](Cc4ccc(O)cc4)NC(=O)[C@H](CCCCNC(N)=O)NC(=O)[C@H](CCSC)NC(=O)[C@H](CO)NC(=O)[C@H](Cc4c[nH]cn4)NC(=O)[C@H](CCCCN)NC3=O)C(=O)N[C@@H](CCCNC(=N)N)C(=O)N[C@@H](CCCCN)C(=O)N[C@@H]([C@@H](C)O)C(=O)N2)NC(=O)[C@H](CCCNC(=N)N)NC(=O)[C@H](CO)NC(=O)[C@H](CCCCN)NC(=O)[C@@H]2CCCN2C(=O)[C@H]([C@@H](C)CC)NC(=O)[C@H]([C@@H](C)O)NC(=O)[C@H](CC(=O)O)NC1=O [K22Homocit],Kd,Kv1.3; read-out: Kd,> 100 nM
CC[C@H](C)[C@@H]1NC(=O)[C@@H](NC(=O)[C@H](CO)NC(=O)[C@@H](N)CCCNC(=N)N)CSSC[C@@H](C(=O)O)NC(=O)[C@H]([C@@H](C)O)NC(=O)CNC(=O)[C@@H]2CSSC[C@@H]3NC(=O)[C@H](CCC(N)=O)NC(=O)[C@H](Cc4ccccc4)NC(=O)[C@H](C)NC(=O)[C@H]([C@@H](C)O)NC(=O)[C@H](CSSC[C@H](NC(=O)[C@H](Cc4ccccc4)NC(=O)[C@H](CO)NC(=O)[C@H](CC(C)C)NC(=O)[C@H](CCCNC(=N)N)NC(=O)[C@H](Cc4ccc(O)cc4)NC(=O)[C@H](CCCCN)NC(=O)[C@H](CCSC)NC(=O)[C@H](CO)NC(=O)[C@H](Cc4c[nH]cn4)NC(=O)[C@H](CCCCN)NC3=O)C(=O)N[C@@H](CCCNC(=N)N)C(=O)N[C@@H](CCCCN)C(=O)N[C@@H]([C@@H](C)O)C(=O)N2)NC(=O)[C@H](CCCNC(=N)N)NC(=O)[C@H](CO)NC(=O)[C@H](CCC(N)=O)NC(=O)[C@@H]2CCCN2C(=O)[C@H]([C@@H](C)CC)NC(=O)[C@H]([C@@H](C)O)NC(=O)[C@H](CC(=O)O)NC1=O [K9Q],Equipotent Molar Ration (Analog IC50 /ShK IC50) Rat brain,[9],0.6
same,IC50,[9],11 nM
same,Equipotent Molar Ration (Analog IC50 /ShK IC50) Lymphocyte,[10],9.6
same,reduction of affinity (IC50) for Kv1.3 relative to ShK toxin,[10],9.6 fold
ShK-K22DAP (peptide; other documents disagree on this pair),Kd,[11],> 100 nM
CC[C@H](C)[C@@H]1NC(=O)[C@@H](NC(=O)[C@H](CO)NC(=O)[C@@H](N)CCCNC(=N)N)CSSC[C@@H](C(=O)O)NC(=O)[C@H]([C@@H](C)O)NC(=O)CNC(=O)[C@@H]2CSSC[C@@H]3NC(=O)[C@H](CCC(N)=O)NC(=O)[C@H](Cc4ccccc4)NC(=O)[C@H](C)NC(=O)[C@H]([C@@H](C)O)NC(=O)[C@H](CSSC[C@H](NC(=O)[C@H](Cc4ccccc4)NC(=O)[C@H](CO)NC(=O)[C@H](CC(C)C)NC(=O)[C@H](CCCNC(=N)N)NC(=O)[C@H](Cc4ccc(O)cc4)NC(=O)[C@H](CCCNC(=N)N)NC(=O)[C@H](CCSC)NC(=O)[C@H](CO)NC(=O)[C@H](Cc4c[nH]cn4)NC(=O)[C@H](CCCCN)NC3=O)C(=O)N[C@@H](CCCNC(=N)N)C(=O)N[C@@H](CCCCN)C(=O)N[C@@H]([C@@H](C)O)C(=O)N2)NC(=O)[C@H](CCCNC(=N)N)NC(=O)[C@H](CO)NC(=O)[C@H](CCCCN)NC(=O)[C@@H]2CCCN2C(=O)[C@H]([C@@H](C)CC)NC(=O)[C@H]([C@@H](C)O)NC(=O)[C@H](CC(=O)O)NC1=O [K22R],Equipotent Molar Ration (Analog IC50 /ShK IC50) Rat brain,[9],> 500
same,IC50 Ratio,[9],> 500
same,ΔF,[9],> 3.65
same,IC50,[9],2000 nM
same,Equipotent Molar Ration (Analog IC50 /ShK IC50) Lymphocyte,[10],225
same,reduction of affinity (IC50) for Kv1.3 relative to ShK toxin,[10],> 225 fold
ShK K9E (analog 104) (peptide),IC50 ratio (analog IC50/ShK IC50),[12],3.57
CC[C@H](C)[C@@H]1NC(=O)[C@@H](NC(=O)[C@H](CO)NC(=O)[C@@H](N)CCCNC(=N)N)CSSC[C@@H](C(=O)O)NC(=O)[C@H]([C@@H](C)O)NC(=O)CNC(=O)[C@@H]2CSSC[C@@H]3NC(=O)[C@H](CCC(N)=O)NC(=O)[C@H](Cc4ccccc4)NC(=O)[C@H](C)NC(=O)[C@H]([C@@H](C)O)NC(=O)[C@H](CSSC[C@H](NC(=O)[C@H](Cc4ccccc4)NC(=O)[C@H](CO)NC(=O)[C@H](CC(C)C)NC(=O)[C@H](CCCNC(=N)N)NC(=O)[C@H](Cc4ccc(O)cc4)NC(=O)[C@H](CCCN)NC(=O)[C@H](CCSC)NC(=O)[C@H](CO)NC(=O)[C@H](Cc4c[nH]cn4)NC(=O)[C@H](CCCCN)NC3=O)C(=O)N[C@@H](CCCNC(=N)N)C(=O)N[C@@H](CCCCN)C(=O)N[C@@H]([C@@H](C)O)C(=O)N2)NC(=O)[C@H](CCCNC(=N)N)NC(=O)[C@H](CO)NC(=O)[C@H](CCCCN)NC(=O)[C@@H]2CCCN2C(=O)[C@H]([C@@H](C)CC)NC(=O)[C@H]([C@@H](C)O)NC(=O)[C@H](CC(=O)O)NC1=O [K22Orn],Equipotent Molar Ration (Analog IC50 /ShK IC50) Rat brain,[9],1.7
same,IC50 Ratio,[9],1.2
same,"binding affinity for rat brain K channels relative to wild-type ShK toxin, in words",[9],little effect
same,reduction of apparent affinity,[9],about 120%
same,ΔF,[9],0.11
same,IC50,[9],20 nM
same,Equipotent Molar Ration (Analog IC50 /ShK IC50) Lymphocyte,[10],1.2
same,reduction of affinity (IC50) for Kv1.3 relative to ShK toxin,[10],only slightly reduced (two times)
same,Kd,Kv1.3,2 ± 1 nM
ShK A15 + A25 (peptide),IC50 ratio (analog IC50/ShK IC50),[13],2.1
same,free energy difference of binding,[13],0.43 kcal/mol
same,IC50 ratio (analog IC50/ShK IC50),[3],2.1
same,free energy difference of binding,[3],0.43 kcal/mol
"KSRCTAFQCKHSXKYRLSFCRKTC (norleucine at position 21) [bicyclic truncated ShK analog of Example 14 (Cys12-Cys28, Cys17-Cys32)]",IC50 ratio (analog IC50/ShK IC50),[14],1360
KSRCTAFQCKHSXKYRLSFCRKTC (norleucine at position 21; Cys12 and Cys28 S-acetamidomethyl (Acm)) [monocyclic truncated ShK analog of Example 14 (Cys17-Cys32)],IC50 ratio (analog IC50/ShK IC50),[14],> 3000
SSCIDTIPKSRCTAFQCKHSMKYRLSFCRKTCGTC [ShK R1S],IC50,[15],0.05 nM
RSCIDTIPQSRCTAFQCKHSMKYRLSFCRKTCGTC [ShK K9Q],IC50,[15],0.31 nM
